Experimental findings from patent US20230331848A1 (BIOSION, published 2023) are described below.

Experiment [1] concerns the target T1, human PD-1 expressed on GS-J2/PD-1 cells (Genscript) (human, UniProt Q15116 25-288).
T1 construct: whole, on cells; also called cell-surface human PD-1
The experiment is described as follows: flow cytometry on GS-J2/PD-1 cells. How it is done:
In specific, the 293F-mouse PD-1 cells and GS-J2/PD-1 cells were respectively harvested from cell culture flasks, washed twice and re-suspended in PBS containing 2% v/v Fetal Bovine Serum (FACS buffer). Then, 2×10⁵ cells per well were incubated in 96 well-plates with 100 μl of the anti-PD1 antibodies or controls at various concentrations for 40 minutes on ice. […] Following an incubation of 40 minutes at 4° C. in dark, cells were washed three times and re-suspended in FACS buffer. Fluorescence was measured using a Becton Dickinson FACS Canto II-HTS equipment and plotted against antibody concentrations. Data was analyzed using GraphPad Prism software and EC₅₀ values were reported.
For the cell-based binding FACS, R-Phycoerythrin AffiniPure Goat Anti-human IgG Fcγ fragment specific (Cat#:109-115-098, Jackson ImmunoResearch) was used for the humanized antibodies, with 1:1000 dilution in FACS buffer, 100 μl/well.
(In flow cytometry, cells or beads pass a laser one at a time.)

The target of experiment [2] is T2, cynomolgus PD-1-his protein (Cat#:PD1-05223, Acro biosystems Inc.) (cynomolgus, UniProt B0LAJ3 25-170).
T2 construct: Bought protein used in Biacore and indirect ELISA; also called monkey PD-1; Cyno PD-1
Kind of experiment: SPR (Biacore), Example 9. Background: Surface plasmon resonance follows binding to a sensor surface in real time, without labels.

For experiment [3], the target named is T3, recombinant human PD-1-his protein (Cat#:10377-H08H, Sino biological Inc.) (human, UniProt Q15116 25-167).
T3 construct: Bought protein used as analyte in the Biacore tests; not shown: his tag
Kind of experiment: SPR (Biacore), Example 9.

Experiment [4] addresses T1, human PD-1 expressed on GS-J2/PD-1 …. The experiment is described as follows: cell-based or functional assay.
In experiment [5] the target is T4, in house made human PD-1-Fc protein (human, biotin-labeled (sites not given)).
T4 construct: also called biotin-labeled human PD-1-Fc
The experiment is described as follows: blocking FACS: biotin human PD-1-Fc + antibody on GS-C2/PD-L1 cells (competitor: cell-surface human PD-L1). How it is done:
GS-C2/PDL1 cells were harvested from cell culture flasks at the log phase, washed twice and re-suspended in PBS containing 2% v/v Fetal Bovine Serum (FACS buffer). GS-C2/PD-L1 cells, 0.6×10⁵ cells per welt, were incubated in 96 well-plates with 100 the antibody/PD1-Fc mixture for 40 minutes at 4° C. Cells were washed twice with FACS buffer, added with 100 R-Phycoerythrin Streptavidin (1:500 dilution in FACS buffer, Cat#:016-110-084, Jackson Immunoresearch), and incubated for 40 minutes at 4° C. in dark. Cells were washed twice and re-suspended in FACS buffer. Fluorescence was measured using a Becton Dickinson FACS Canto II-HTS equipment. Data was analyzed using Graphpad Prism software and IC₅₀ values were reported.

Experiment [6] deals with T2, cynomolgus PD-1-his protein …. The experiment is described as follows: indirect ELISA on coated cynomolgus PD-1-his. (In an ELISA, binding on a coated surface is turned into a signal by an enzyme label.)
Experiment [7] deals with T5, human PD-1-his protein (Cat#:PD1-H5221, Acro biosystems Inc.) (human, UniProt Q15116 25-167).
T5 construct: not shown: his tag
Kind of experiment: BLI (Octet RED96), supernatant antibody captured on AHC sensor, human PD-1-his in solution, 1:1 fit. How it is done: (§1) Briefly, AHC biosensors (anti-human IgG Fe capture, from ForteBio) were presoaked with 10 mM glycine (pH 1.5) for 3 seconds, and then dipped in a well with running buffer (0.5% w/v BSA in PBST) for 3 seconds, the soaking and dipping steps were repeated for three times. […] A new baseline was run for 100 seconds in another well with running buffer. Then the sensors were dipped in a well with serially diluted human PD-1-his protein (Cat#:PD1-H5221, Acro biosystems Inc., starting at 100 nM with a two-fold serial dilution) in running buffer for 120 seconds, and then immersed in a baseline well for […]. Finally, sensors were presoaked with 10 mM glycine (pH 1.5) for 30 seconds, and then were dipped in a well with running buffer for 30 seconds. The association and dissociation curves were fit to a 1:1 Langmuir binding model using ForteBio Data Analysis 8.1 evaluation software.

Experiment [8] has as its target T4, in house made human PD-1-Fc protein. The experiment is described as follows: competitive ELISA: biotin human PD-1-Fc + antibody on coated human PD-L1-Fc (competitor). How it is done: Briefly, 100 μl human PD-L1-Fc protein (prepared in-house with SEQ ID NO: 28) at 2 μg/mL in carbonate/bicarbonate buffer (pH 9.6) was coated on 96-well micro plates overnight at 4° C., Plates were washed with wash buffer (PBS+0.05% w/v Tween-20, PBST), and blocked with 5% w/v non-fatty milk in PBST for 2 hours at 37° C. […] After incubation at 37° C. for 40 minutes, plates were washed using wash buffer. […] Plates were washed again using wash buffer. Finally, TMB was added and the reaction was stopped using 1M H₂SO₄. The absorbance was read on a microplate reader using dual wavelength mode with 450 nm for TMB and 630 nm as the reference wavelength, then the OD (450-630) values were plotted against antibody concentrations. Data was analyzed using Graphpad Prism software and IC₅₀ values were reported.

Experiment [9] addresses T1, human PD-1 expressed on GS-J2/PD-1 …. Kind of experiment: cell-based binding FACS on GS-J2/PD-1 cells expressing human PD-1 (MFI); unit from the axis 'Con of mAb, nM.'.
The target in experiment [10] is T6, recombinant mouse PD-1-his protein (Cat#:50124-M08H, Sino Biological Inc) (mouse, UniProt Q02242 25-167).
T6 construct: Bought protein used in Biacore and indirect ELISA; not shown: his tag
T6 sequence (looked up): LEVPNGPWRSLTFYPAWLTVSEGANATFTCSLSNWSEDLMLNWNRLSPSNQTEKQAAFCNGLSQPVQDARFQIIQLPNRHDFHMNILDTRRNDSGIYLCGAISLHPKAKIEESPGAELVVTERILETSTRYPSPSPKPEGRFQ
The experiment is described as follows: SPR (Biacore), Example 9.

The target in experiment [11] is T7, human PD-1-his protein prepared in-house (human, UniProt Q15116 25-167, biotin-labeled (sites not given)).
T7 construct: also called biotin labeled human PD-1-his
Kind of experiment: capture ELISA, antibody captured, biotin human PD-1-his detected. How it is done:
Briefly, 96-well micro plates were coated with 100 μl 2 μg/ml AffiniPure Goat Anti-Mouse IgG F(ab′)₂ fragment specific (Cat#:115-005-072, Jackson lmmunoResearch) or Goat-anti-human IgG (Cat#:109-005-097, Jackson ImmunoResearch, for the positive control and negative control) in PBS overnight at 4° C. Plates were washed once with wash buffer (PBST, PBS+0.05% Tween-20) and then blocked with 200 μl/well blocking buffer (5% w/v non-fatty milk in PBST) for 2 hours at 37° C. […] After a final wash, plates were incubated with 100 μl/well TMB (Cat#:TMB-S-002, Innoreagents) at room temperature.
For the capture ELISA, 96-well plates were coated with 100 μl 2 μg/ml AffiniPure Goat Anti-Human IgG, Fcγ fragment specific (Cat#:109-005-098, Jackson Immunoresearch) instead of AffiniPure goat-anti-mouse IgG F(ab′)₂ fragment specific.

The target of experiment [12] is T7, human PD-1-his protein prepared in-house. The experiment is described as follows: competitive ELISA: biotin human PD-1-his + antibody on coated Pembrolizumab (competitor). How it is done: ELISA plates were washed once with wash buffer (PBST, PBS+0.05% Tween-20) and then blocked with 200 μl/well blocking buffer (5% w/v non-fatty milk in PBST) for 2 hours at 37° C. […] After incubation at 37° C. for 40 minutes, plates were washed using wash buffer, added and incubated with 100 μl/well Peroxidase Streptavidin for 40 minutes at 37° C. Plates were washed again using wash buffer. Finally, TMB was added and the reaction was stopped using 1M H₂SO₄. The absorbance was read on a microplate reader using dual wavelength mode with 450 nm for TMB and 630 nm as the reference wavelength, and the OD (450-630) values were plotted against antibody concentrations. Data was analyzed using Graphpad Prism software and IC₅₀ values were reported.

In experiment [13] the target is T5, human PD-1-his protein (Cat#:PD1-H5221, …). Kind of experiment: BLI (Octet RED96), antibody captured on AHC sensor, human PD-1-his in solution, 1:1 fit. How it is done: as §1
Experiment [14] has as its target T6, recombinant mouse PD-1-his protein …. The experiment is described as follows: SPR (Biacore), protocol of Example 2.
The target in experiment [15] is T3, recombinant human PD-1-his protein …. The experiment is described as follows: SPR (Biacore), protocol of Example 2.
Experiment [16] addresses T5, human PD-1-his protein (Cat#:PD1-H5221, …). The experiment is described as follows: BLI (Octet RED96), antibody captured on AHC sensor, human PD-1-his in solution, 1:1 fit (second run). How it is done: as §1

B1: humanized antibody huE1A9C8A7-V8 (antibody, human IgG4 S228P, kappa, V domains shown)
VH: QVQLVQSGAEVVKPGASVKISCKASGYTFTDYVMHWVRQAPGQSLEWMGVISTYHIPAVYNQKFKGKATMTVDTSTSTVYLELSSLRSEDTAVYYCAREVYGDSYYFDVWGQGTTVTVSS
VL: DIVMTQTPLSLPVTPGEPASISCRSSQSIVHSNGNTYLEWYLQKPGQSPQLLIYKVSNRFSGVPDRFSGSGSGTDFTLKISRVEAEDVGVYYCFQGSHVPYTFGGGTKVEIKR
notes: Human IgG4/kappa
B1: the EC50 – broadly, the concentration giving half of the maximal effect – in experiment [1] was determined as 0.63 nM; in experiment [6], 0.82 nM; in experiment [9] it was 0.461 nM; in experiment [11] it was 0.21 nM. In addition, the Kd – broadly, the free concentration of one partner at which half of the binding sites on the other are occupied at equilibrium, for simple one-to-one binding – in experiment [2] is 1.34 nM; in experiment [3], 0.634 nM; in experiment [7] it was 1.13 nM; in experiment [10], 380 nM. Further, the dissociation rate constant (koff) – broadly, the first-order rate constant of dissociation – in [2] was 0.000484 s⁻¹; in experiment [3], 0.000593 s⁻¹; in [7], 0.000291 s⁻¹; in experiment [10] it was 0.0182 s⁻¹. For the same molecule, the kon – broadly, the second-order rate constant of association – in experiment [2] was found to be 361000 M⁻¹ s⁻¹; in experiment [3], 934000 M⁻¹ s⁻¹; in experiment [7] it was 258000 M⁻¹ s⁻¹; in experiment [10] it was 47900 M⁻¹ s⁻¹. In [4], the “Cell-based functional assay (EC50, nM)” value turned out to be 5.13 nM. The IC50 – broadly, the point on the concentration scale where inhibition reaches its midpoint – was found to be 0.55 nM in experiment [5], 0.33 nM in experiment [8] and 0.51 nM in experiment [12].

B2: humanized antibody huE1A9C8A7-V8-3 (antibody, human IgG4 S228P, kappa, V domains shown)
VH: QVQLVQSGAEVVKPGASVKISCKASGYTFTDYVMHWVRQAPGQSLEWMGVISTYHIPAVYNQKFKGKATMTVDTSTSTVYLELSSLRSEDTAVYYCAREVYGESYYFDVWGQGTTVTVSS
VL: DIVMTQTPLSLPVTPGEPASISCRSSQSIVHSAGNTYLEWYLQKPGQSPQLLIYKVSNRFSGVPDRFSGSGSGTDFTLKISRVEAEDVGVYYCFQGSHVPYTFGGGTKVEIKR
notes: huE1A9C8A7-V8 modified in VH CDR3 (D to E) and VL CDR1 (N to A)
For the molecule B2, in [2], the affinity, expressed as Kd, was 0.722 nM; the koff came out at 0.000332 s⁻¹; the kon came out at 461000 M⁻¹ s⁻¹. Also, in experiment [3], the Kd worked out at 0.382 nM, the koff is 0.00041 s⁻¹ and the kon is 1.07e+06 M⁻¹ s⁻¹. The same molecule gave an EC50 in experiment [9] of 0.451 nM. Also, in experiment [10], the Kd amounted to 244 nM, the koff was found to be 0.0167 s⁻¹ and the kon was determined as 64800 M⁻¹ s⁻¹.

B3: Chimeric E1A9C8A7 antibody (antibody, human IgG4 S228P, kappa, V domains shown)
VH: QVQLQQSGAEVVRPGVSVRISCKGSGYTFSDYVMHWMKQSHGESLEWIGVISTYHIPAVYNQKFKGKATMTVDKSSSTVYLELARLTSEDSAIYYCAREVYGDSYYFDVWGAGTTVTVSS
VL: DVLMTQIPLSLPVSLGDQVSISCRSSQSIVHSNGNTYLEWYLQKPGQSPKLLIYKVSNRFSGVPDRFSGSGSGTDFTLKISRVEAEDLGVYYCFQGSHVPYTFGGGTKLEIKR
notes: also called chimeric antibody E1A9C8A7
Consider B3, for which the concentration giving a half-maximal response (EC50) in experiment [1] was found to be 0.67 nM; in experiment [6], 0.85 nM; in experiment [11], 0.21 nM. For the same molecule, the Kd was found to be 1.32 nM in experiment [13], 162 nM in experiment [14], 1.11 nM in experiment [15] and 2.18 nM in experiment [16]. The koff in experiment [13] turned out to be 0.000316 s⁻¹; in experiment [14], 0.027 s⁻¹; in [15] it was 0.000645 s⁻¹; in experiment [16], 0.000597 s⁻¹. Besides, the kon was 239000 M⁻¹ s⁻¹ in [13], 167000 M⁻¹ s⁻¹ in experiment [14], 580000 M⁻¹ s⁻¹ in experiment [15] and 274000 M⁻¹ s⁻¹ in experiment [16]. In experiment [4], the “Cell-based functional assay (EC50, nM)” value worked out at 7.45 nM. Besides, the results for the IC50 in experiment [5], in [8] and in experiment [12] were 0.57 nM, 0.38 nM and 0.61 nM, respectively.
